As a reminder, the stoichiometry N is a count of units in the complex or per binding partner.

Common to all, as to details: both partners purified
Assay [1] concerns the target T1, activated BinB (act-B), trypsin-cleaved (Lysinibacillus sphaericus).
T1 chain: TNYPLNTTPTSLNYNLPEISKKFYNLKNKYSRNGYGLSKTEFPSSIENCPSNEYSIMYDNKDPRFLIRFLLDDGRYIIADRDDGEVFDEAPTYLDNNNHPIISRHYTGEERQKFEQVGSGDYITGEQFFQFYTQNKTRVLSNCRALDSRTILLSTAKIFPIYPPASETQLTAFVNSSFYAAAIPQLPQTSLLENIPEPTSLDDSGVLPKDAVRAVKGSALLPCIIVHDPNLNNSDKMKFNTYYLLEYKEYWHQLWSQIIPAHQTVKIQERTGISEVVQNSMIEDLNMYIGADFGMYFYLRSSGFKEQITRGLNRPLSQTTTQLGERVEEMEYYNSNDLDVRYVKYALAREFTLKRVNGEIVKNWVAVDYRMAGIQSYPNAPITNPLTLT
The experiment in a line: AUC; sedimentation equilibrium, 20°C, 3–10 μM in monomer, 10 to 22.5 krpm, same buffer with 35 mM C8E5 density matched with 16% D2O; global fit to an A+B heteroassociation model (SEDPHAT).

Assay [2] has as its target T1, activated BinB (act-B), trypsin-cleaved. As to the kind of experiment: AUC; sedimentation equilibrium, 20°C, 3–10 μM in monomer, 10 to 22.5 krpm, 50 mM Tris-HCl pH 9.0, 50 mM NaCl, 1 mM DTT, without detergent; global fit to an A+B heteroassociation model (SEDPHAT).
The target is the same in assay [3]. The experiment in a line: SEC; Superdex 200 HR 10/30, 50 mM Tris-HCl pH 9.0, 50 mM NaCl, 1 mM DTT; subunits alone or mixed 1:1, incubated 15 min at room temperature; typically 60 μM before and 18 μM after chromatography (total monomer); eluted band checked by SDS-PAGE and MALDI-TOF.

B1: activated BinA (act-A), trypsin-cleaved (domain or fragment)
chain: IDSFIPTEGKYIRVMDFYNSEYPFCIHAPSAPNGDIMTEICSRENNQYFIFFPTDDGRVIIANRHNGSVFTGEATSVVSDIYTGSPLQFFREVKRTMATYYLAIQNPESATDVRALEPHSHELPSRLYYTNNIENNSNILISNKEQIYLTLPSLPENEQYPKTPVLSGIDDIGPNQSEKSIIGSTLIPCIMVSDFISLGERMKTTPYYYVKHTQYWQSMWSALFPPGSKETKTEKSGITDTSQISMTDGINVSIGADFGLRFGNKTFGIKGGFTYDTKTQITNTSQLLIETTYTREYTNTENFPVRYTGYVLASEFTLHRSDGTQVNTIPWVALNDNYTTIARYPHFASEPLLGNTKIITDDQN
modifications: Trypsin-activated. Cleavage sites not given; UniProt mature chain limits used (MALDI about 40.8 kDa). Strain not given; P06575 chosen over the strain variant P05516. / Trypsin-activated. Cleavage
Consider B1, for which the Ka in assay [1] was 1.92e+06 M⁻¹; in assay [2] it was 1.19e+06 M⁻¹. Besides, the “stoichiometry N” value in assay [3] is 1.

Values taken from article PMC4920411, “Binary Toxin Subunits of Lysinibacillus sphaericus Are Monomeric and Form Heterodimers after In Vitro Activation” (PLoS ONE, 2016).
